From patent US20210292393A1
Several values for one entry are separate records, joined by “and”; a condition that tells them apart may be missing. Equal entries are not always repeated.

Key:
Conditions in all cases: remark: other sources report otherwise
[1] = biological target: SARS-CoV-2 full length spike protein (wild-type) (SARS-CoV-2), P0DTC2
[2] = biological target: SARS-CoV-2 full length spike protein (wild type), expressed on the surface of transiently transfected CHO cells (SARS-CoV-2), P0DTC2
[3] = biological target: SARS-CoV-2 full length spike protein (wild type), conjugated to beads (SARS-CoV-2), P0DTC2
[4] = biological target: SARS-CoV-2 full length spike protein, wild type, expressed on the surface of transiently transfected CHO cells (SARS-CoV-2), P0DTC2
[5] = biological target: SARS-CoV-2 spike protein (SARS-CoV-2), P0DTC2
[6] = biological target: SARS-CoV-2 spike (S) protein, full length, wild type (SARS-CoV-2), P0DTC2

B1: antibody 452 (antibody, V domains shown)
VH: QVQLVESGGGLVKPGGSLRLSCAASGFTFSDYYLSWIRQAPGKGLEWVSYISSSGSNIYYADSVKGRFTISRDNAKNSLYLQMNSLRADDTAVFYCARAGRYCSGGSCRVEYFQHWGQGTLVTVSS
VL: SYELTQPPSVSVSPGQTARITCSGDALPKQYAYWYQQKPGQAPVLVIYKDNERPSGIPERFSGSSSGTTATLTISGVQAEDEADYYCQSADSSGTVVFGGGTKLTVL
For B1, the Binding to Wild-Type SARS-CoV-2 (Bead Assay) [1] was 854 and the median fluorescence intensity, fold over isotype control (fold over isotype) [2] was 26.8.

B2: antibody 390 (antibody, V domains shown)
VH: EVQLVESGGGLIQPGGSLRLSCAASGFTVSSNYMSWVRQAPGKGLEWVSIIYSGGSTYYADSVKGRFTISRDNSKNTLYLQMNSLRAEDSAVYSCATTMVRGLIISYYYGMDVWGQGTTVTVSS
VL: QSALTQPASVSGSPGQSITISCTGTSSDVGGYNYVSWYQQHPGKAPKLMIYEVSNRPSGVSNRFSGSKSGNTASLTISGLQAEDEADYYCSSYTSSSTLVFGGGTKLTVL
B2 was tested, and the binding signal, bead assay (fold over isotype) [3] was 637 and 341 and 318, the median fluorescence fold over isotype control (fold over isotype) [4] was 0.73 and the Kd [5] was 0.153 nM. The koff [5] was 1.97e-05 s⁻¹ and the kon [5] was 129000 M⁻¹ s⁻¹.

B3: antibody 396 (antibody, V domains shown)
VH: QVQLQQWGAGLLKPSETLSLTCAVYGGSFSGYYWSWIRQPPGKGLEWIGEIIHSGSTNYNPSLKSRVTISVDTSKNQFSLKLSSVTAADTAVYYSARRTGLLWFREGSYYFDYWGQGTLVTVSS
VL: DIQMTQSPSSLSASVGDRVTITCRASQGIRNDLGWYQQKPGKAPKRLIYAASSLQSGVPSRFSGSGSGTEFTLTISSLQPEDFATYYCLQHNSYPLTFGGGTKVEIK
Work on B3 yielded a binding signal, bead assay (fold over isotype) [3] of 553.

B4: anti-SARS-CoV-2 antibody 495 (antibody, V domains shown)
VH: QITLKESGPTLVKPTQTLTLTCTFSGFSLSTSGVGVGWIRQPPGKALEWLALIYWDDDKRYSPSLKSRLTITKDTSKNQVVLIMTNMDPVDTATYYCAHRDSSSWFDLDAFDIWGQGTMVIVSS
VL: QSVLTQPPSVSEAPRQRVTISCSGSSSNIGNNAVNWYQQLPGKAPKLLIYYDDLLPSGVSDRFSGSKSGTSASLAISGLQSEDEADYYCAAWDDRLNGPVFGGGTKLTVL
B4 was tested, and the median fluorescence fold over isotype (fold over isotype) [6] was 1090 and 384 and 530.

B5: anti-SARS-CoV-2 antibody 485 (antibody, V domains shown)
VH: QVQLQESGPGLVKPSGTLSLTCAVSGASISSSNWWSWVRQPPGKGLEWIGEIYHSGSTNYNPSLKSRVTISVDKSKNQFSLKLSSVTAADTAVYYCARRSYYGSGSYYPFDYWGQGTLVTVSS
VL: QSALTQPASVSGSPGQSITISCTGTSSDVGSYNLVSWYQQHPGKAPKLMIYEGRKRPSGVSNRFSGSKSGNTASLTISGLQAEDEADYYCCSYAGSSTYVFGTGTKVTVL
Work on B5 yielded a median fluorescence fold over isotype (fold over isotype) [6] of 510.

B6: antibody 472 (antibody, V domains shown)
VH: EVQLVESGGGLIQPGGSLRLSCAASGFTVSSNYMSWVRQAPGKGLEWVSVIYSGGTTHYADSVKGRFTISRDNSKNTLYLQMNSLRAEDTAVYYCANYGMDVWGQGTTVTVSS
VL: SYELTQPSSVSVSPGQTARITCSGDVLAKKYARWFQQKPGQAPVLVIYKDSERPSGIPERFSGSSSGTTVTLTISGAQVEDEADYYCYSAADKVFGGGTKLTVL
With B6 the median fluorescence intensity, fold over isotype control (fold over isotype) [2] was 0.91, the Kd [5] was < 0.469 nM and the koff [5] was < 1e-05 s⁻¹. The kon [5] was 21300 M⁻¹ s⁻¹.

B7: anti-SARS-CoV-2 antibody 499 (antibody, V domains shown)
VH: EVQLVESGGGLVKPGGSLRLSCAASGFTFSSYSMNWVRQAPGKGLEWVSSISSSSSYIYYADSVKGRFTISRDNAKNSLYLQMNSLRAEDTAVYYCARAPAGIVVGPDYWGQGTLVTVSS
VL: NFMLTQPHSVSESPGKTVTISCTGSSGSIASNYVQWYQQRPGSAPTTVIFEDNQRPSGVPDRFSGSIDSSSNSASLTISGLKTEDEADYYCQSYHSSNPHVVFGGGTKLTVL
With B7 the median fluorescence fold over isotype (fold over isotype) [6] was 1120 and 386 and 432.
